From article PMC10533329

Target: RGA5 HMA domain (rice (Oryza sativa)) (UniProt F7J0N2)
Assay: SPR; Biacore […]) or 50 to 0 µM ([…]; HBS-EP+ buffer; 1:1 binding model, kinetic fit

Sequence of UniProt F7J0N2 (F7J0N2 997-1066): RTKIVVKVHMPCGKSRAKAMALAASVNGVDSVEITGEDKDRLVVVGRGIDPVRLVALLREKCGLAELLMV

Substance: AVR-Pia (purified) (from UniProt B9WZW9 1-85) (natural protein)
- Kd: 26.8 µM
